According to US7153676B1, “Transacylases of the paclitaxel biosynthetic pathway” (priority 1999, dated 2006):
Entries after “also recorded” stand apart in the source; their conditions may differ.

Key:
[1] = biological target: T1, taxane-2α-O-benzoyl transferase (TAX2) (Taxus cuspidata, UniProt Q9FPW3); assay: recombinant TAX2 benzoyl transferase screening assay (radio-HPLC); format: biochemical; conditions: UV and radioactivity profiles
T1 construct: Full-length insert fragments of the relevant plasmids are excised and subcloned in-frame into the expression vector pCWori+; made in house; host or cells: E. coli JM109 (pCWori+)
T1 sequence (Q9FPW3 1-440): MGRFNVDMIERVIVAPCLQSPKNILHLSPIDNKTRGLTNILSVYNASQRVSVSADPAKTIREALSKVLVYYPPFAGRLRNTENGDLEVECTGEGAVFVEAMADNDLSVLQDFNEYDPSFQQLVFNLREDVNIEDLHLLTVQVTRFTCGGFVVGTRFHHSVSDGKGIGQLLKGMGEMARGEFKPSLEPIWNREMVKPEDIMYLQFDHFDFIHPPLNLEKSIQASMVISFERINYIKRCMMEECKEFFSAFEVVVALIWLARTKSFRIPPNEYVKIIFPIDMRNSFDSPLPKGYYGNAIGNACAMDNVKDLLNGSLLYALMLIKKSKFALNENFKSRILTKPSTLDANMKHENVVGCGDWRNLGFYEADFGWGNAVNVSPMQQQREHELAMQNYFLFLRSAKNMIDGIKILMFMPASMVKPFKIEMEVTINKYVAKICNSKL
Description: TAX2, TAX5, TAX7, TAX9, TAX10, TAX 12, and TAX13 ([…]) were expressed in bacteria using the following protocol. For a typical preparation of the recombinant enzyme, each of the E. coli cultures transformed with a pCWori+ vector harboring a putative transacylase gene was grown overnight at 37° C. in 5 mL Luria-Bertani medium supplemented with 50 μg ampicillin/mL. 1 mL of these cultures was individually added to separate aliquots of 100 mL Terrific Broth culture medium (6 g bacto-tryptone (Difco Laboratories, Spark, Md.), 12 g yeast extract (EM Science, Cherryhill, N.J.), and 2 mL glycerol in 500 mL water) and grown at 37° C. After 3 hours, the medium was supplemented with 1 mM isopropyl-β-D-thiogalactopyranoside for induction and 50 μg ampicillin/mL, and the cultures were grown at 25° C. […]
A 1-mL aliquot of each soluble enzyme preparation was incubated with 2-debenzoyl-7,13-diacetylbaccatin III (500 μM) and [7-^14C]benzoyl coenzyme A (500 μM, 9.3 μCi) for 1.5 hours at 31° C. […] The resulting crude products of the assay were dissolved in acetonitrile (50 μL) and analyzed by radio-HPLC using a Perkin Elmer HPLC ISS 200 coupled to a PACKARD RADIOMATIC™ radioactivity detector series A100 (Canberra, Ind., Meriden, Conn.) (see FIGS. 12A and 12B for a representative chromatogram). […]

[2] = biological target: T2, TAX2 gene product (Taxus cuspidata, UniProt Q9FPW3); assay: recombinant TAX2 expressed in E. coli JM109, acetyl transacylase assay; format: biochemical; conditions: [3H]taxadienol and acetyl CoA co-substrates
T2 construct: Full-length insert fragments of the relevant plasmids are excised and subcloned in-frame into the expression vector pCWori+; made in house; host or cells: E. coli JM109 (pCWori+)
T2 sequence (Q9FPW3 1-440): T1 sequence (Q9FPW3 1-440)
Description: To determine the identity of the putative taxadienol acetyl transacylase, TAX1 (SEQ ID NO: 28), TAX2 (SEQ ID NO: 26), and TAX6 (SEQ ID NO: 45) were subcloned in-frame into the expression vector pCWori+ (Barnes, Methods Enzymol. 272:3–14, 1996) and expressed in E. coli JM109 cells. The transformed bacteria were cultured and induced with isopropyl β-D-thiogalactoside (IPTG), and cell-free extracts were prepared and evaluated for taxadienol acetyl transacylase activity using the previously developed assay procedures (Walker et al., Arch. Biochem. Biophys. 364:273–279, 1999). Clone TAX1 (corresponding directly to Probe 1) expressed high levels of taxadienol acetyl transacylase activity (20% conversion of substrate to product), as determined by radiochemical analysis; the product of this recombinant enzyme was confirmed as taxadienyl-5α-yl acetate by gas chromatography-mass spectrometry (GC-MS) (FIGS. 5A–5G). […] Neither of the recombinant proteins expressed from TAX1 (SEQ ID NO: 28) or TAX2 (SEQ ID NO: 26) was capable of acetylating the advanced paclitaxel precursor 10-deacetyl baccatin III to baccatin III. […]

B1: TAX2: full-length clone, SEQ ID NO: 25/26; taxane-2α-O-benzoyl transferase (protein, listed as Taxus cuspidata)
chain: T1 sequence (Q9FPW3 1-440)
product from 2-debenzoyl-7,13-diacetylbaccatin III and [7-14C]benzoyl CoA [1]: coincide exactly with the retention time of authentic 7,13-diacetylbaccatin III | taxadienol acetyl transacylase activity [2]: did not express taxadienol acetyl transacylase activity; also recorded: inactive
